Patent publication US20060193849A1 (published 2006)

Target: MUC-1 gene product, the membrane mucin glycoprotein (polymorphic epithelial mucin or PEM) (human, UniProt P15941 24-1255)
Experiment: flow cytometry equilibrium binding on MCF7 cells

Sequence of MUC-1 gene product, the membrane mucin glycoprotein (polymorphic epithelial mucin or PEM) (P15941 24-1255): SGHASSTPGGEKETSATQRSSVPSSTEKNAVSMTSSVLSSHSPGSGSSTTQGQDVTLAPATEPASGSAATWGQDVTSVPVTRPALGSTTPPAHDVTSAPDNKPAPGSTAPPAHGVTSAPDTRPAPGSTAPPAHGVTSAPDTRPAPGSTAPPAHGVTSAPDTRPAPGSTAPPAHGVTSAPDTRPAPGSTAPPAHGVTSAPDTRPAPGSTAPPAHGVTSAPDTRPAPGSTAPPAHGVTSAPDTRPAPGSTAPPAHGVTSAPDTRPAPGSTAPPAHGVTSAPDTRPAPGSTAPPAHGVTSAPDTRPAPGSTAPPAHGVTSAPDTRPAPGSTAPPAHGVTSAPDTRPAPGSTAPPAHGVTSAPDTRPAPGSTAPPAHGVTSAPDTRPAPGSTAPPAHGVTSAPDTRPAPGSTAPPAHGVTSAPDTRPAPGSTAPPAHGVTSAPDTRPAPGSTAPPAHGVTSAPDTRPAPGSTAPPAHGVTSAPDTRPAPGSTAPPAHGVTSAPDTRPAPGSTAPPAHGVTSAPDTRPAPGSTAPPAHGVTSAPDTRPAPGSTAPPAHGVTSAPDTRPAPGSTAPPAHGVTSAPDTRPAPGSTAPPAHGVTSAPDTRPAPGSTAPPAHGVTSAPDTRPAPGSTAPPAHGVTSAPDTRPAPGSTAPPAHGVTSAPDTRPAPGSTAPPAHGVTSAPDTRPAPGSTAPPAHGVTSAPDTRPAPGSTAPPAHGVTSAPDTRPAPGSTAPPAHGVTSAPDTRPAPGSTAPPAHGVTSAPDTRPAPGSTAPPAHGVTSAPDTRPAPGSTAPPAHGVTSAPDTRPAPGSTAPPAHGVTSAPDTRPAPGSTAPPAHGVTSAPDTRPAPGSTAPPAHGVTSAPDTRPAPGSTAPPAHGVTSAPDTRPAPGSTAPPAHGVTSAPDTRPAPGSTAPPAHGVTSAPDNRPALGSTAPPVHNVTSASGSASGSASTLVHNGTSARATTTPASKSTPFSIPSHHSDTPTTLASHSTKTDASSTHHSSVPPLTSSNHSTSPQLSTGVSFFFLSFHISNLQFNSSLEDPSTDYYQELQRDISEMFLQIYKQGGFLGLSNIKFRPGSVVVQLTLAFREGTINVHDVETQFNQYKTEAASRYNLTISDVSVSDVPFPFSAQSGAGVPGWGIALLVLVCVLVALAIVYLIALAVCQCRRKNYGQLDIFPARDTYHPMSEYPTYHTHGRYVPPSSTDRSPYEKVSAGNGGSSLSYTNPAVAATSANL

B1: huHMFG1 wild-type scFv 4.10W (scFv)
scFv: QVQLVQSGAEVKKPGASVKVSCKASGYTFSAYWIEWVRQAPGKGLEWVGEILPGSNNSRYNEKFKGRVTVTRDTSTNTAYMELSSLRSEDTAVYYCARSYDFAWFAYWGQGTLVTVSSGGGGSGGGGSGGGGSDIQMTQSPSSLSASVGDRVTITCKSSQSLLYSSNQKIYLAWYQQKPGKAPKLLIYWASTRESGVPSRFSGSGSGTDFTFTISSLQPEDIATYYCQQYYRYPRTFGQGTKVEIKR
Binder B1 has a Kd of 114 nM.
